In the Immune Epitope Database (IEDB):

Columns and labels:
[1] = target: HLA-A*24:02; experiment: IEDB peptide-MHC binding, purified MHC/competitive/radioactivity; filed as Kd, often an IC50 or EC50 that approximates it; ≥ and ≤ were set here for values at or beyond the usual limits of such assays
[2] = target: HLA-A*26:01; experiment: as above
[3] = target: HLA-A*29:02; experiment: as above
[4] = target: HLA-A*01:01; experiment: as above
[5] = target: HLA-A*30:02; experiment: as above
[6] = target: HLA-A*23:01; experiment: as above
[7] = target: HLA-B*44:03; experiment: as above
[8] = target: HLA-B*40:01; experiment: as above
[9] = target: HLA-B*44:02; experiment: as above
[10] = target: HLA-A*30:01; experiment: as above
[11] = target: HLA-A*32:01; experiment: as above
[12] = target: HLA-A*02:01; experiment: as above; settings: source organism: Lassa virus Josiah
[13] = target: HLA-A*02:01; experiment: IEDB peptide-MHC binding, purified MHC/competitive/fluorescence; filed as Kd, often an IC50 or EC50 that approximates it; ≥ and ≤ were set here for values at or beyond the usual limits of such assays
[14] = target: HLA-B*51:01; experiment: IEDB peptide-MHC binding, purified MHC/competitive/radioactivity; filed as Kd, often an IC50 or EC50 that approximates it; ≥ and ≤ were set here for values at or beyond the usual limits of such assays
[15] = target: HLA-B*53:01; experiment: as above; settings: source organism: Dengue virus 2 Jamaica/1409/1983
[16] = target: HLA-B*57:01; experiment: IEDB peptide-MHC binding, purified MHC/direct/fluorescence; filed as Kd, often an IC50 or EC50 that approximates it; ≥ and ≤ were set here for values at or beyond the usual limits of such assays; settings: source organism: Entamoeba histolytica HM-1:IMSS
[17] = target: HLA-B*58:01; experiment: as above; settings: source organism: Entamoeba histolytica HM-1:IMSS
[18] = source organism: Mammarenavirus brazilense
[19] = source organism: SARS coronavirus Tor2
[20] = source organism: Dengue virus 4 Philippines/H241/1956
[21] = source organism: Dengue virus 1 Brazil/97-11/1997
[22] = source organism: Dengue virus 2 Jamaica/1409/1983
[23] = source organism: Dengue virus 1 Singapore/S275/1990
[24] = source organism: Dengue virus 3 Martinique/1243/1999
[25] = source organism: Mammarenavirus whitewaterense
[26] = source organism: Mammarenavirus choriomeningitidis
[27] = source organism: Lymphocytic choriomeningitis virus (strain Armstrong)
[28] = source organism: Mammarenavirus guanaritoense
[29] = source organism: Dengue virus 1 Nauru/West Pac/1974
[30] = source organism: Mammarenavirus lassaense

IPDVIELAY was tested, and the Kd [1, 18] was ≥ 33.5 µM, the Kd [2, 18] was ≥ 38.3 µM and the Kd [3, 18] was 3.15 µM. It also gave a Kd [4, 18] of 5.51 µM, a Kd [5, 18] of 2.76 µM and a Kd [6, 18] of 18.6 µM.

For PFWITAIYVF, the Kd [1, 19] was 0.00192 µM, the Kd [2, 19] was 0.724 µM and the Kd [3, 19] was 0.657 µM. The Kd [4, 19] was 0.41 µM, the Kd [5, 19] was 16 µM and the Kd [6, 19] was 0.000189 µM.

Work on NERRAWNFL yielded a Kd [7, 20] of 2.09 µM.

With VEPWLRGNQF the Kd [8, 21] was 3.78 µM and the Kd [9, 21] was 0.073 µM.

With EEVQVLALEP the Kd [7, 22] was ≥ 23.4 µM.

KEISNMLNI gave a Kd [7, 23] of 0.0687 µM, a Kd [8, 23] of 0.191 µM and a Kd [9, 23] of 0.0746 µM.

NEGVMAVGL was tested, and the Kd [7, 24] was 1.81 µM and the Kd [8, 24] was 0.226 µM.

YVSSIFLHL was tested, and the Kd [10, 25] was 4.82 µM, the Kd [2, 25] was 1.85 µM and the Kd [3, 25] was 0.0157 µM. The Kd [4, 25] was 0.514 µM, the Kd [5, 25] was 12.5 µM and the Kd [11, 25] was ≥ 51 µM.

DLFATQPGL showed a Kd [12] of 12.5 µM.

LLMDCSGSI showed a Kd ([13]; source organism: Plasmodium falciparum) of 0.0013 µM.

QLQSPGVADY was tested, and the Kd [10, 26] was ≥ 70.4 µM, the Kd [2, 26] was 7.7 µM and the Kd [3, 26] was ≥ 24.9 µM. The Kd [4, 26] was 0.29 µM, the Kd [5, 26] was 0.043 µM and the Kd [11, 26] was ≥ 69.9 µM.

IEREIPERSW showed a Kd [7, 20] of 0.649 µM and a Kd [9, 20] of 0.0616 µM.

KMETLQRKY was tested, and the Kd [5, 22] was ≥ 76.9 µM.

KCWLVTNGSY was tested, and the Kd [1, 27] was ≥ 70.3 µM, the Kd [2, 27] was ≥ 69.7 µM and the Kd [3, 27] was 0.937 µM. For the same sequence, the Kd [4, 27] was 17.3 µM, the Kd [5, 27] was 0.0274 µM and the Kd [6, 27] was ≥ 70 µM.

ELTLTNTSI showed a Kd [12] of 12.5 µM.

With WMMAMRYPITA the Kd ([13]; source organism: Influenza A virus (A/chicken/Fujian/25/00(H9N2))) was 0.0015 µM.

For ATQPGLTSAV, the Kd [12] was ≥ 25 µM.

For LFDVIPVSY, the Kd [10, 28] was ≥ 21.1 µM, the Kd [2, 28] was ≥ 51.9 µM and the Kd [3, 28] was 0.0673 µM. The Kd [4, 28] was 0.613 µM, the Kd [5, 28] was 1.91 µM and the Kd [11, 28] was 9.75 µM.

KMTLFKSIL gave a Kd ([13]; source organism: Vaccinia virus WR) of 1.28 µM.

For IDETCEHEY, the Kd [1, 19] was ≥ 77.6 µM, the Kd [2, 19] was ≥ 32 µM and the Kd [3, 19] was 2.85 µM. For the same sequence, the Kd [4, 19] was 11 µM, the Kd [5, 19] was 0.162 µM and the Kd [6, 19] was ≥ 77.8 µM.

Work on NMETLNMTM yielded a Kd [12] of 1.39 µM.

With EALRGFLLY the Kd [10, 18] was 5.72 µM, the Kd [2, 18] was 1.58 µM and the Kd [3, 18] was 0.117 µM. For the same sequence, the Kd [4, 18] was 3.73 µM, the Kd [5, 18] was 2.27 µM and the Kd [11, 18] was ≥ 60.2 µM.

Sequence DYSVLYNSTF has a Kd [1, 19] of 0.0242 µM, a Kd [2, 19] of 4.22 µM and a Kd [3, 19] of 2.54 µM. For the same sequence, the Kd [4, 19] was ≥ 70.4 µM, the Kd [5, 19] was ≥ 60.4 µM and the Kd [6, 19] was 0.159 µM.

MLWTTDKHV was tested, and the Kd ([13]; source organism: Human alphaherpesvirus 1 strain 17) was 1.29 µM.

SSPDAVTTY was tested, and the Kd [1, 19] was ≥ 77.6 µM, the Kd [2, 19] was 9.74 µM and the Kd [3, 19] was ≥ 21.6 µM. The Kd [4, 19] was 5.49 µM, the Kd [5, 19] was 3.29 µM and the Kd [6, 19] was ≥ 77.8 µM.

QFKDNVILL was tested, and the Kd [1, 19] was 1.13 µM, the Kd [2, 19] was ≥ 27.5 µM and the Kd [3, 19] was ≥ 21.7 µM. The Kd [4, 19] was ≥ 51.8 µM, the Kd [5, 19] was ≥ 40 µM and the Kd [6, 19] was 1.15 µM.

Work on ALMEWLKTRPI yielded a Kd ([13]; source organism: Influenza A virus (A/swine/Hannover/1/1981(H1N1))) of 0.0169 µM.

NAWKVSCTI showed a Kd [14, 22] of 0.0553 µM and a Kd [15] of 0.036 µM.

YLRPYMHGY gave a Kd [16] of 5.46 µM and a Kd [17] of 12 µM.

Sequence KVDAIDGEY has a Kd [4, 22] of 0.953 µM and a Kd [5, 22] of 0.171 µM.

In the case of WPISKMDIGV, the Kd [14, 23] is reported as 10.7 µM.

Sequence VEMGEAAAIF has a Kd [7, 20] of 0.166 µM, a Kd [8, 20] of 0.971 µM and a Kd [9, 20] of 0.0129 µM.

In the case of AEPPFGESYI, the Kd [7, 29] is reported as 0.877 µM, the Kd [8, 29] is reported as 0.183 µM and the Kd [9, 29] is reported as 0.596 µM.

For LEHGSCVTTM, the Kd [7, 22] was 1.08 µM and the Kd [8, 22] was 0.0648 µM.

AGFSAGLTY was tested, and the Kd [1, 30] was ≥ 77.5 µM, the Kd [2, 30] was ≥ 77.9 µM and the Kd [3, 30] was 0.0636 µM. For the same sequence, the Kd [4, 30] was ≥ 23.9 µM, the Kd [5, 30] was 0.528 µM and the Kd [6, 30] was ≥ 43.8 µM.
